Key:
Assay in all cases: cell-based or functional assay
[1] = target: T1, human epidermal growth factor receptor 2 (HER2), membrane-bound on tumor cells (AU565, A431, SK-BR-3) (human, UniProt P04626 23-1255)
[2] = target: T1, human epidermal growth factor receptor …; remark: listed apart in the source
[3] = target: T1, human epidermal growth factor receptor …; remark: listed apart in the source

| Binder | EC50, fab-CypHer5E internalization assay, AU565 cells [1] | Maximal MFI, fab-CypHer5E internalization assay, AU565 cells [1] | % cells killed, AU565 cells, anti-kappa-ETA′-conjugated antibody [2] | EC50 of killing, AU565 cells, anti-kappa-ETA′-conjugated antibody [2] | EC50 of killing, A431 cells, anti-kappa-ETA′-conjugated antibody [3] |
| --- | --- | --- | --- | --- | --- |
| HuMab 106 (antibody, V domains shown) VH: EVQLVQSGAEVKKPGESLKISCKGSGYSFTRYWIGWVRQMPGKGLEWMGIIYPGDSDTRYSPSFQGQVTISADKSISTAYLQWSSLKASDTAMYYCARLTGDRGFDYYSGMDVWGQGTTVTVSS VL: not shown | 0.0686 µg/mL | 57400 MFI | 59.1% | 0.108 µg/mL |  |
| HuMab 005 (antibody, human IgG1, V domains shown) VH: EVQLVQSGAEVKKPGESLKISCKASGYSFHFYWIGWVRQMPGKGLEWMGSIYPGDSDTRYRPSFQGQVTISADKSISTAYLQWTSLKASDTAIYYCARQRGDYYYFYGMDVWGQGTTVTVSS VL: not shown | 0.0214 µg/mL | 95100 MFI | 69.7% | 0.0151 µg/mL | ~0.0101 µg/mL |
| HuMab 059 (antibody, V domains shown) VH: QVQLVQSGAEVKKPGASVRVPCKASGYTFTRYGISWVRQAPGQGLEWMGWISAYNGKTYYAQKLQGRVTMTTDTSTSTAYMELRSLRSDDTAVYYCARSPLLWFEELYFDYWGQGTLVTVSS VL: EIVLTQSPGTLSLSPGERATLSCRASQSVSSTYLAWYQQKPGQAPRLLIYGASSRATGIPDRFSGSGSGTDFTLTISRLEPEDFAVYYCQQYGTSLFTFGPGTKVDIK | 0.0148 µg/mL | 77100 MFI | 67% | 0.0677 µg/mL |  |
| HuMab 060 (antibody, V domains shown) VH: EVQLVQSGAEVKKPGESLKISCKGSGYRFTSYWIGWVRQMPGKGLEWMGSIYPGDSYTRNSPSFQGQVTISADKSIATAYLQWNSLKASDTAMYYCARHAGDFYYFDGLDVWGQGTTVTVSS VL: not shown | 0.0362 µg/mL | 68200 MFI | 64.3% | 0.0794 µg/mL | ~0.01 µg/mL |
| HuMab 111 (antibody, V domains shown) VH: QVQLVQSGAEVKKPGSSVKVSCKASGGTFSSYGISWVRQAPGPGLEWMGRIIPILGIANYAQKFQGRVTITADKSTNTAYMELSSLRSEDTAVYYCARDQEYSSNWYYWGQGTLVTVSS VL: not shown | 0.0352 µg/mL | 81700 MFI | 72% | 0.0242 µg/mL |  |
